This note sets out measurements from paper PMC6581901, “The SRP signal sequence of KdpD” (Scientific Reports, 2019).

Experiment [1] concerns the target T1, SRP reconstituted from Ffh 406S/423C and 4.5S RNA (E. coli, UniProt P0AGD7 1-453, M423C | C406S).
T1 construct: Ffh of E. coli SRP with a cysteine at 423 (M domain pocket) and a serine at 406, from pMS-Ffh-M423C-C-Strep; Ribonucleoprotein with 4.5S RNA; also called SRP 423; Ffh M423C; source: E. coli BL21 (DE3), purified (Strep-Tactin, Superdex 75); reconstituted with in vitro transcribed 4.5S RNA
T1 sequence (looked up): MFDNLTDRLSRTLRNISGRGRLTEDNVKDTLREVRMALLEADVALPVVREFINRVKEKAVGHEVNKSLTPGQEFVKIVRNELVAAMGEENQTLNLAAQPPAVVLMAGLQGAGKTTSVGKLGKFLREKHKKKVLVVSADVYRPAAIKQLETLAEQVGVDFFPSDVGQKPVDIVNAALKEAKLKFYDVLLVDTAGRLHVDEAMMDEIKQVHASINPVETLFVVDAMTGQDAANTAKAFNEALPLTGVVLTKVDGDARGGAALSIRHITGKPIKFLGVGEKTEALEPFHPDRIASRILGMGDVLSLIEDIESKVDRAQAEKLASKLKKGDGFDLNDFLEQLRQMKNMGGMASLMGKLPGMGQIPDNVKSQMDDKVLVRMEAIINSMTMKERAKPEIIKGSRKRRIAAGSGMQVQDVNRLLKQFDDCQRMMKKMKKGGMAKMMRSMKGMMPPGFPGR
The experiment is described as follows: cross-linking; disulfide cross-linking with 1 mM copper phenanthroline; 2 µM reconstituted SRP (Ffh + 3 µM 4.5S RNA) with 20 µM peptide, 1 h on ice, 50 mM Tris pH 7.4, 150 mM NaCl, 10 mM MgCl2; TCA precipitation, SDS-PAGE with or without DTT. Conditions: both partners purified.

The target of experiment [2] is T2, SRP reconstituted from wild-type Ffh (406C) and 4.5S RNA (E. coli, UniProt P0AGD7 1-453).
T2 construct: Ffh (fifty-four-homolog), 48-kDa protein component of E. coli SRP, expressed from pMS-Ffh-C-Strep; Ribonucleoprotein: Ffh with a 1.5-fold molar excess of 4.5S RNA; the RNA is not written as a chain; also called wildtype SRP; source: E. coli BL21 (DE3), purified (Strep-Tactin, Superdex 75); reconstituted with in vitro transcribed 4.5S RNA
T2 sequence (looked up): T1 sequence (looked up) with S406C, C423M
Described as above. The following applies: both partners purified.

Residue numbers refer to the chain shown, from its start.

B1: KdpD peptide (residues 22-48), in vitro synthesized (peptide)
peptide: Ac-RGKLKVFFGACAGVGKTWAMLAEAQRL-NH2
notes: also called KdpD22-48; KdpD22–48 peptide; source: synthetic peptide (GENOSPHERE Biotechnologies, purity >95%)
As for B1, the binding result in experiment [1] and in experiment [2] was “binds” each time.
